The conditions of this data set: Escherichia coli (strain K12); pH 9; 50 °C; Thermal; DSC; Sodium tetraborate 1 mM; reversible: yes; whole UniProt chain shown.

Data on 1 protein can be found in FireProtDB (doi:10.1093/protein/9.5.425).

B1: Tryptophan synthase alpha chain wild type, P0A877 (protein)
chain: MERYESLFAQLKERKEGAFVPFVTLGDPGIEQSLKIIDTLIEAGADALELGIPFSDPLADGPTIQNATLRAFAAGVTPAQCFEMLALIRQKHPTIPIGLLMYANLVFNKGIDEFYAQCEKVGVDSVLVADVPVEESAPFRQAALRHNVAPIFICPPNADDDLLRQIASYGRGYTYLLSRAGVTGAENRAALPLNHLVAKLKEYNAAPPLQGFGISAPDQVKAAIDAGAAGAISGSAIVKIIEQHINEPEKMLAALKVFVQPMKAATRS
For B1, the “heat capacity change of unfolding” value stood at 4.81 kcal/mol/K and the unfolding free energy was 1.17 kcal/mol.
